Measured values reported in publication PMC11958688.

Tests used:
Assay in all cases: fluorescence polarisation; FITC-labelled peptide fixed at 4 nM, arrestin titrated (0-50 μM; 0-3.20 μM for C-tail_6P); 20 mM HEPES pH 7.4, 100 mM NaCl, 0.01% DDM; room temperature, 30 min; One Site–Total fit; triplicate
[1] = target: NTSR1 C-tail peptide phosphorylated at Ser401/Ser403/Ser404 (human)
[2] = target: NTSR1 C-tail peptide with hexa-phosphorylation at Ser401/Ser403/Ser404 and Thr407/Ser409/Ser410 (human)
[3] = target: NTSR1 C-tail peptide phosphorylated at Thr407/Ser409/Ser410 (human)

human βArr1 truncated at residue 382 (constitutively active variant) (from UniProt P49407 1-382) (domain or fragment)
Kd [1]: 5.11 µM | Kd [2]: 0.035 µM | Kd [3]: 3.77 µM
